In test [1] the target is T1, human PAR4 on isolated human platelets (human, UniProt Q96RI0 18-385).
T1 sequence: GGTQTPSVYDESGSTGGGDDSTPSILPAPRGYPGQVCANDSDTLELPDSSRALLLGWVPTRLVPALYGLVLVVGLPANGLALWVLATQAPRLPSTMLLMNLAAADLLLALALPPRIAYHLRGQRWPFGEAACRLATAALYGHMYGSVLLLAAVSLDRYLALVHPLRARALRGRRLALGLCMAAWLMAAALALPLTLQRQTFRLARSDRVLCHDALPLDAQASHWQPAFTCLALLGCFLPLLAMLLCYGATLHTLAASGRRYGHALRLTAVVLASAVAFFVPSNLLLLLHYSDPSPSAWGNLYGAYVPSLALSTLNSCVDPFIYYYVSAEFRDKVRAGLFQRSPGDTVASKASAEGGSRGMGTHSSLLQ
Kind of test: cell-based or functional assay.

Another test has as its target T2, hPAR4 1-9 peptide (human).
T2 construct: Range counted on the hPAR4 immunising peptide; also called peptide 1-9
T2 peptide: GDDSTPSIL
Kind of test: ELISA, peptide coated on the plate, purified mAb, background subtracted. The protocol:
(§1) Briefly the peptides were coated onto a Nunc maxisorp ELISA plate at 10 ug/ml overnight in coating buffer (0.1 M sodium carbonate pH8.0). Purified mAbs diluted in PBS were used in place of supernatant.
On the technique in general: An ELISA detects its analyte on a solid surface through an enzyme-linked reagent.

Test [2] deals with T3, hPAR3 (Biotin) peptide (human, biotin on the C-terminal lysine (SKB)).
T3 construct: also called PAR3 peptide; PAR3 screening peptide
T3 peptide: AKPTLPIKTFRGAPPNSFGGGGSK
In words: ELISA, biotinylated peptide on streptavidin plate, absorbance 405 nm. The protocol:
(§2) Biotinylated peptides (hPAR1-4) were diluted in Wash buffer and allowed to bind to the blocked Streptavidin coated wells at 10 ug/ml (100 ul per well) for 1 hour at room temperature with gentle mixing. Wells were washed 3 times as above and purified anti-hPAR4 mAbs prepared at 10 ug/ml in Wash buffer were allowed to bind (100 ul/well) for 1 hour at room temperature with gentle mixing. The plate was washed 3 times as above and anti-mouse Fc conjugated to Alkaline phosphatase (AP) at 0.3 ug/ml (100 ul) was added to the wells for 1 hour as above. Wells were washed 3 times as above and developed with Alkaline Phosphatase substrate as described for the screening supernatant ELISA.
(§3) To further characterise the purified anti-hPAR4 mAb's the specificity of the mAbs to hPAR1, hPAR2, hPAR3 and hPAR4 biotinylated peptides was performed.

In test [3] the target is T4, hPAR1 (Biotin) peptide (human, not fully specified; biotin on the C-terminal lysine (SKB)).
T4 construct: also called PAR1 peptide; PAR1 screening peptide
T4 peptide: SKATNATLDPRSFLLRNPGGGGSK
Described as above. As for the experimental part:
as §2, §3

The target in test [4] is T5, hPAR2 (Biotin) peptide (human, not fully specified; biotin on the C-terminal lysine (SKB)).
T5 construct: also called PAR2 peptide; PAR2 screening peptide
T5 peptide: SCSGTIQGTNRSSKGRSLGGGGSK
Described as above. As for the experimental part:
as §2, §3

Test [5] deals with T6, hPAR4 (naked) peptide (human).
T6 construct: also called native PAR4 peptide; hPAR4 peptide
T6 peptide: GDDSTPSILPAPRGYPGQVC
In words: ELISA, purified mAb on hPAR4 peptide coated wells, anti-mouse Fc-AP, absorbance 405 nm. The protocol: The experiment was completed with purified mAbs diluted in PBS instead of hybridoma supernatants.
The reactivity of seven purified anti-hPAR4 mAbs was analysed by ELISA (see Table 4).

Test [6] deals with T1, human PAR4 on isolated human platelets. Kind of test: flow cytometry on isolated human platelets. (In general: Flow cytometry measures light scatter and fluorescence of single cells or particles in a stream.)
Test [7] has the same target. Kind of test: cell-based or functional assay. The source holds these as a separate data set.
The next test addresses T7, hPAR4 8-15 peptide (human).
T7 construct: Range counted on the hPAR4 immunising peptide; also called peptide 8-15; core peptide
T7 peptide: ILPAPRGY
Kind of test: ELISA, peptide coated on the plate, purified mAb, background subtracted. The protocol:
as §1

The next test deals with T8, hPAR4 11-20 peptide (human).
T8 construct: Range counted on the hPAR4 immunising peptide; the C-terminal cysteine was removed, so nine residues are given; also called peptide 11-20
T8 peptide: APRGYPGQV
Described as above. The protocol: as §1

The target of test [8] is T3, hPAR3 (Biotin) peptide. Kind of test: ELISA, hybridoma supernatant.
Test [9] concerns the target T4, hPAR1 (Biotin) peptide. Kind of test: ELISA, hybridoma supernatant.
In test [10] the target is T6, hPAR4 (naked) peptide. In words: ELISA, hybridoma supernatant.
In test [11] the target is T9, hPAR4 (Biotin) peptide (human, biotin on the C-terminal lysine (SKB)).
T9 construct: also called hPAR4-biotinylated peptide; biotin-coupled human PAR4 peptide
T9 peptide: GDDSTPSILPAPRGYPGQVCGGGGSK
In words: SPR Bio-Rad ProteOn XPR36, biotin peptide captured, purified mAb as analyte.

Test [12] deals with T3, hPAR3 (Biotin) peptide. Kind of test: ELISA, hybridoma supernatant on immobilised peptide, binding as fold above control. The protocol: (§4) Wells were then washed with an automated plate washer (300 μl 1×PBS, 3 times). […] Wells were washed as above. A set of substrate tablets (1×silver, 1×gold) into 20 ml of ddH₂O by shaking vigorously on the thermomixer for 6 mins at room temperature. 50 μl of substrate ([…]™ […] Tablets (Sigma-Aldrich, N2770-50SET)) was added into each well and incubated for 20-25 mins at room temperature. 50 μl of STOP solution (2M Sodium Hydroxide, Solid (NaOH) (Merck, Cas #1310-73-2)) was added into each well to stop the reaction. Absorbance was read at 405 nm immediately after adding STOP solution with the ELISA reader, using the ‘RdrOle4’ software.
(§5) In order to determine the specificity of the anti-hPAR4 clones to PAR4, ELISA screening was performed as described above.

For test [13], the target named is T4, hPAR1 (Biotin) peptide. Described as above. As for the experimental part:
as §4, §5

The target in test [14] is T5, hPAR2 (Biotin) peptide. The test is described as above. The protocol:
as §4, §5

Test [15] deals with T9, hPAR4 (Biotin) peptide. In words: SPR Biacore T200, biotin peptide on SA chip, whole mAb as analyte. As for the experimental part: (§6) The kinetics of the binding interaction between the mAbs and hPAR4 was measured using Surface Plasmon Resonance (SPR; Biacore) by two different methods: 1. Anti-mouse Fc mAb capture method and 2. Streptavidin (SA) chip to capture biotinylated peptide. The ka(on) rate and kd(off) rates and KD were measured and fitted to a Langmuir model using the Biacore evaluation software.
For orientation: SPR reads the build-up and loss of mass on a sensor chip optically.

Test [16] has as its target T6, hPAR4 (naked) peptide. Kind of test: ELISA, purified mAb on hPAR4 peptide.
In test [17] the target is T6, hPAR4 (naked) peptide. In words: SPR Biacore T200, mAb captured by anti-mouse Fc, hPAR4 peptide as analyte. As for the experimental part:
A series S CM5 sensor chip was activated with standard EDC/NHS amine coupling chemistry using the manufacturers recommended protocol with Goat anti-mouse IgG Fc. Anti-hPAR4 mAbs were captured at 1-2 ug/ml for 2 minutes at 10 ul/minute on flow cell 2 (FC2) and flow cell 1 (FC1) was used as a reference channel. […] Blank injections of buffer alone were also performed. All injections were performed in duplicate and in a random order.
as §6

For test [18], the target named is T3, hPAR3 (Biotin) peptide. Kind of test: ELISA, hybridoma supernatant.
In test [19] the target is T4, hPAR1 (Biotin) peptide. Kind of test: ELISA, hybridoma supernatant.
The next test addresses T10, mPAR4 (naked) peptide (mouse).
T10 construct: T0021 says only 'mouse PAR4'; also called mouse PAR4
T10 peptide: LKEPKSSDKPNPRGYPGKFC
In words: ELISA, hybridoma supernatant.

In test [20] the target is T6, hPAR4 (naked) peptide. In words: ELISA, hybridoma supernatant.

Broadly, the EC50 (read off the curve) is the concentration at which the effect is half-maximal. In general, Kd refers to a measure of binding affinity in units of concentration. By koff is commonly meant the first-order rate constant of dissociation. Higher therefore signals fast dissociation. A word on the kon: it is the rate constant with which the complex forms. Lower therefore signals slow association.

Where two headings read alike, the source gives them in different places.

B1: 5F.RF3.A7b.C9 (antibody, IgG2b, V domains shown)
VH: QVQLVQSGAEVKKPGASVKVSCKTSAYTFTNYGISWVRQAPGQGLEWMGWISPYNGNTNYAQKLQGRVTMTTDTSTRTAYMELRSLRSDDTAVYYCAREYNRSSRGRYYYYGMDVWGQGTTVTVSS
VL: EIVLTQSPGTLSLSPGERATLSCRASQSVSSNYLAWYQKKPGQAPRLLISGASSRATGIPDRFSGSGSGTDFTLTISRLEPEDFAVYYCQQYGSSPWTFGQGTKVEIK
notes: also called MoB5F-RF3.A7b.C9; MoB5F F3
Turning to B1, in test [1], the “platelet aggregation, % of control” value was < 50 % of control. The binding result is “no binding” with hPAR4 1-9 peptide, “no binding (tested: 10 ug/ml)” with hPAR3 (Biotin) peptide [2], “no binding (tested: 10 ug/ml)” in the test with hPAR1 (Biotin) peptide [3] and “no binding (tested: 10 ug/ml)” with hPAR2 (Biotin) peptide [4]. The 50% effective concentration (EC50 (read off the curve)) with hPAR4 (naked) peptide [5] is about 0.1 µg/mL. The “GMFI at 10 ug/ml over isotype control” value in test [6] was 53.

B2: 5A.RC3.F10b.H4b (antibody, IgG2a, V domains shown)
VH: QVQLVESGGGVVQPGRSLRLSCAASGFTLSNYGMHWVRQAPGKGLEWVSVIWYDGSNKHYADSVKGRFTISRDNSKNTLYLQMNSLRAEDTAVYYCARESIVEVLPPFDYWGQGTLVTVSS
VL: KIVLTQSPGTLSLSPGERVTLSCRASQRVRNNYLAWFQQKPGQAPRLFIYGASSRATGIPDRFSGSGSGTDFIFTISRLEPEDFAVYYCQQYGNSYTFGQGTKLEIK
notes: also called MoB5ARC3; MoB5A-RC3.F10b.H4b
For B2, the “IC50 (ug/ml) for inhibition of platelet aggregation, 0.1 U/ml thrombin” value in [7] turned out to be 1.6 µg/mL. The binding result was “binds” with hPAR4 8-15 peptide; “no binding” with hPAR4 11-20 peptide; “no binding” with hPAR4 1-9 peptide; “no binding” in the test with hPAR3 (Biotin) peptide [12]; “no binding” in the test with hPAR1 (Biotin) peptide [13]; “no binding” with hPAR2 (Biotin) peptide [14]. Besides, in the test with hPAR3 (Biotin) peptide [8], the “binding to PAR3 ratio” value was 1.1 ratio. In addition, in the test with hPAR1 (Biotin) peptide [9], the “binding to PAR1 ratio” value stood at 1 ratio. Also, the “binding to PAR4 ratio” value with hPAR4 (naked) peptide [10] is 15.2 ratio. In addition, the Kd in the test with hPAR4 (Biotin) peptide [11] was about 0.4 nM; in the test with hPAR4 (Biotin) peptide [15] it was 0.32 nM; with hPAR4 (naked) peptide [17], 14.8 nM. Besides, the koff is 0.000417 s⁻¹ in the test with hPAR4 (Biotin) peptide [15] and 0.00487 s⁻¹ with hPAR4 (naked) peptide [17]. In addition, the kon in the test with hPAR4 (Biotin) peptide [15] was found to be 1.32e+06 M⁻¹ s⁻¹; in the test with hPAR4 (naked) peptide [17] it was 330000 M⁻¹ s⁻¹. Also, in the test with hPAR4 (naked) peptide [16], the “ELISA Pos:Neg ratio” value was determined as 13.9 ratio. In addition, the “GMFI at 10 ug/ml over isotype control” value in test [6] was found to be 39.

B3: 5H.RF2.A5b.D3.C2 (antibody, IgG2a, V domains shown)
VH: QVQLQQWGAGLLKPSETLALTCAVYGGSLSDYYWSWIRQPPGKGLEWIGEINHSGTTNYNPSLKSRVTISVDTSKKQFSLKLSSVTAADTAVYYCAIEYSNSRGYYYGMDVWGQGTTVTVSS
VL: DIQMTQSPSSLSASAGDRITITCRASQTISNYLNWYQQKPGKAPKLLIYAASSLQSGVPSRFSGSGSGTDFTLTISSLQPEDFASYYCRQNYNTPLTFGGGTKVEIK
notes: also called MoB5H F2
In the case of B3, the “platelet aggregation, % of control” value in test [1] is > 80 % of control. Further, the “binding to PAR3 ratio” value with hPAR3 (Biotin) peptide [18] came out at 0.9 ratio. Also, in the test with hPAR1 (Biotin) peptide [19], the “binding to PAR1 ratio” value came out at 1 ratio. For the same molecule, in the test with mPAR4 (naked) peptide, the “binding to mouse PAR4 ratio” value came out at 10.4 ratio. Moreover, the “fold binding native vs KLH-linked PAR4 peptide” value in the test with hPAR4 (naked) peptide [20] worked out at 11.9 fold. Further, the binding result with hPAR3 (Biotin) peptide [2], in the test with hPAR1 (Biotin) peptide [3] and with hPAR2 (Biotin) peptide [4] was “no binding (tested: 10 ug/ml)” each time. For the same molecule, the values for the Kd with hPAR4 (Biotin) peptide [15] and with hPAR4 (naked) peptide [17] were 0.61 nM and 38 nM, respectively. The koff with hPAR4 (Biotin) peptide [15] came out at 0.00111 s⁻¹; in the test with hPAR4 (naked) peptide [17] it was 0.00227 s⁻¹. The kon in the test with hPAR4 (Biotin) peptide [15] came out at 1.84e+06 M⁻¹ s⁻¹; with hPAR4 (naked) peptide [17], 58400 M⁻¹ s⁻¹. Besides, in the test with hPAR4 (naked) peptide [16], the “ELISA Pos:Neg ratio” value amounted to 8.5 ratio.
